Experimental data reported in US20220119506A1 (NOVOBIND LIVESTOCK THERAPEUTICS, published 2022).
Changes are numbered by the printed parent chain.

B1: NBX0865 (VHH)
VHH: QVQLQESGGGLVQAGGSLRLSCADSGRVFSTYVMGWYRQVPGKQRELVATITPGGLINYGDAVKGRFTISRDNAKNTVYLQMNSLKPADTAVYYCNARRLFAINWGGGTQVTVSS
notes: on phage in the phage ELISA
B2: NBX0626 (VHH)
VHH: QVQLQQSGGGLVQAGGSLRLACAVSETTLATNAMAWYRQAQGKRREWVATISSVSSGGITNYSGSVKGRFTISRDNAKNTVFLQMNSLQPEDTAVYYCNGVRRGRSYWGQGTQVTVSS
notes: on phage in the phage ELISA
B3: NBX0864 (VHH)
VHH: QVQLQESGGGLVQPGGSLRLSCAASGIISSAYVMGWYRQAPGKQRELVATITSGGTTRYADSVKGRITISRDNAKNTVLLQMNSLKPEDTAVYYCNARILLTNYWGQGTQVTVSS
notes: on phage in the phage ELISA
B4: NBX09005 (VHH)
VHH: QVQLQESGGGLVQAGGSLRLSCAASGLTFGSYAMGWFRQAPGKEREFVAAIMRYSSRTYYTDSVKGRFTISRDNAKNTVNLQMNNLEPEDTAIYYCAAAKRLSIVTLPRQYEFWGQGTQVTVSS
notes: on phage in the phage ELISA
B5: NBX09010 (VHH)
VHH: B4 VHH with E6Q, I104R, Q110E
notes: on phage in the phage ELISA
B6: NBX09009 (VHH)
VHH: B4 VHH with A50T, T91A, T106A
notes: on phage in the phage ELISA
B7: NBX0855 (VHH)
VHH: QVQLQESGGGLVQPGESLRLSCAASTSGFSSYVMAWYRQAPGKQRELVASMTTGGLTNYADSVKGRFTISRDNAKNTVYLQMNSLKPEDTAAYYCNARRLWNAYWGQGTQVTVSS
notes: on phage in the phage ELISA
B8: NBX09011 (VHH)
VHH: B7 VHH
notes: on phage in the phage ELISA
B9: NBX0861 (VHH)
VHH: QVQLQESGGGLVQAGGSLRLSCVASGSISNSHVMGWYRQAPGKERELVATLTSGGLTHFGDSVKGRFTISRDNAKNTIYLQMNSLKVEDTAVYYCNARRLLTSMWGQGTQVTVSP
notes: on phage in the phage ELISA
B10: NBX0827 (VHH)
VHH: QVQLQESGGGLVQAGGSLRLSCAASGSISSSFVMGWYRQAPGKQRELVATITSGGSTIYADSVKGRFTVSRDNAKNTVYLQMNSLKSEDTAVYYCHARRLWNTYWGQGTQVTVSS
notes: on phage in the phage ELISA
B11: NBX0854 (VHH)
VHH: QVQLQQSGGGLVQAGGSLRISCAASGSISSAYVMGWYRQAPGTQRELVATITSGGTTNYADSVKGRFTVSRDNAKNTVYLQMNSLKPDDTAVYYCNARRLWTTYWGQGTQVTVSS
notes: on phage in the phage ELISA
B12: NBX0831 (VHH)
VHH: B10 VHH with A23S, S27D, I28A, S29F, S31R, F32Y
notes: on phage in the phage ELISA
B13: NBX0863 (VHH)
VHH: QVQLQQSGGGLAQAGGSLRLSCAASGRTFNWYTMAWFRQAPGKEREFVAAIRLGSTVYGDSVKARFTISRDNAKSTVSLQMNSLKPEDTALYYCAVGITGDGTIQGGPYQYWGQGTQVTVSS
notes: on phage in the phage ELISA
B14: NBX0404 (VHH)
VHH: QVQLQESGGGLVQAGDSLRLSCATSGRTFSRYTMGWFRQTPGKEREFVAAISWSGTYYTDSVKGRFTISVDNAKNTVYLQMNSLKPEDTAVYYCASGSRRLYYSSDIDYWGQGTQVTVSS
notes: on phage in the phage ELISA
B15: NBX0405 (VHH)
VHH: B14 VHH with V70R, A95V, S96V, D108N
notes: on phage in the phage ELISA
B16: NBX0862 (VHH)
VHH: QVQLQESGGGLVQPGGSLRLSCSASGNRFSSSYVLGWYRQAPGKQRELVATVTSGGLTHYGDSVKGRFTISRDNAKNTVYLQMNSLKPEDTAVYYCNARILLTNYWGQGTQVTVSS
notes: on phage in the phage ELISA
B17: NBX0843 (VHH)
VHH: B16 VHH with L35M, W37Y, S54T, H59N, G61A
notes: on phage in the phage ELISA
B18: NBX0859 (VHH)
VHH: QVQLQESGGGLVQPGGSLRLSCSASGNRFSSSYVMGWYRQGPGKQRELVATVTSGGMTHYGDSVKGRFTISRDNAKNTVYLHMNSLKPEDTGVYYCFARRLWDIHWGQGTQVTVSS
notes: on phage in the phage ELISA
B19: NBX0835 (VHH)
VHH: B16 VHH with L35M, Y60F, G61K, V114I
notes: on phage in the phage ELISA
B20: NBX0852 (VHH)
VHH: QVQLQESGGGLVQAGGSLRLSCEASGRTFSSYRVGWFRQAPGKGREFVAAISATGGTTYYGDSVKGRFTISRDNAENTVSLQMNSLEPEDTAVYYCAATKGIVNYRVAGTYDAWGQGTQVTVSS
notes: on phage in the phage ELISA
B21: NBX0858 (VHH)
VHH: QVQLQESGGGLVQAGGSLRLSCAASRRDFTTTTMAWYRQAPGKKRETVATVNTGGLTWYADFVKGRFTISRDDAVNTLLLQMDSLKPEDTAVYYCNAVLVRARGMWGQGTQVTVSS
notes: on phage in the phage ELISA
B22: NBX09003 (VHH)
VHH: QVQLQESGGGLVQPGGSLRLSCTASGSIFSLLNMGWYRQAPGKQRELVASITSRSYTNYADSVKGRFTISRDNTKNMVYLQMNSLKPEDTAVYYCNLNPADWGRLRNWGQGTQVTVSS
notes: on phage in the phage ELISA
B23: NBX09007 (VHH)
VHH: QVQLQESGGGLVQPGGSLRLSCAASGSISSSYVMGWYRQAPGKQRDLVATITNAGNIHYGDSVKGRFTISRDNAKNTVSLQMNSLKPEDTAVYYCNARALWRAYWGQGTQVTVSS
notes: on phage in the phage ELISA
B24: NBX0614 (VHH)
VHH: QVQLQQSGGGLVQAGGSLRLSCAASGSSFRSNAIGWYRQFPGKSRELIAVITRSGSTQYADSVKGRFTASRDNAKNMIYLQMNNLKLEDTAVYYCHDETMKLISVKNDYWGQGSQVTVSS
notes: on phage in the phage ELISA
B25: NBX0627 (VHH)
VHH: B24 VHH with F40S, N84S, L87P, S104T, V105G, S114T
notes: on phage in the phage ELISA
B26: NBX0851 (VHH)
VHH: QVQLQQSGGGLVQPGGSLRLSCAASGRMFSGYVMGWYRQAPGKQRELVATITNGGLTNYADSVKGRFTISRDNAKNTVYLQMNSLKPDDTAVYYCNARRLWDIYWGQGTQVTVSS
notes: on phage in the phage ELISA
B27: NBX0857 (VHH)
VHH: B26 VHH with M28I, Y32H, A60G, I103T
notes: on phage in the phage ELISA
B28: NBX0640 (VHH)
VHH: QVQLQESGGGLVQPGGSLRLSCAASGSIFSGNVMGWYRQVPGKQRDLVATITGGGITRYADSVKGRFTISRDNAKNTVYLQMNSLKPEDTAVYYCHYRRIMQQYWGQGTQVTVSS
notes: on phage in the phage ELISA
B29: NBX0643 (VHH)
VHH: B28 VHH with P14A, A23E, I51M, I56V, G65A, A91G
notes: on phage in the phage ELISA
B30: NBX0644 (VHH)
VHH: B28 VHH with P14A, T77K, S84G, Y94F, H96F
notes: on phage in the phage ELISA
B31: NBX0638 (VHH)
VHH: B28 VHH with P14A, H96N, Q107K, Q110L
notes: on phage in the phage ELISA
B32: NBX0850 (VHH)
VHH: QVQLQESGGGLVQAGGSLRLSCAASGSISASYVMGWYRQTPGKQRELVATTTSGGTTRYADSVRGRFTISRDNARNTVYLQMNSLKPDDTAVYYCNARRLFLNYWGQGTQVTVSS
notes: on phage in the phage ELISA
B33: NBX09002 (VHH)
VHH: QVQLQESGGGLVQAGESLRLSCADSGRTSSTYDMAWFRQAPGKEREFVAAISRDGGRLSYADSVKGRFTISRDNAKNTLSLQMNSLRPEDTAVYYCAAFSIRGGLRPSYKYWGQGTQVTVSS
notes: on phage in the phage ELISA
B34: NBX09006 (VHH)
VHH: QVQLQESGGGLVQPGGSLRLSCAASGSISGSYVMGWYRQAPGKQRELVATITSGGLTRYADSVKGRWTISRDNAKNTVYLQMNNLKLEDTAVYYCSARRIATTYWGQGTQVTVSS
notes: on phage in the phage ELISA
B35: NBX09001 (VHH)
VHH: QVQLQESGGGSVQPGGSLRLSCAASGSALSSNVLGWYRQAPGKQRELVATISSGGLTNYADSVKGRFTISRDNAKNTVYLQMNSLKPEDTAVYYCQSRRLFTVYWGQGTQVTVSS
notes: on phage in the phage ELISA
B36: NBX09008 (VHH)
VHH: QVQLQESGGGLVQAGGSLRLSCSASGRTFSVRAMGWFRQAPGKERESVAAIHQNTRTTLYADSVKGRFAISRDGTKNTVYLQMNSLKPEDTAVYYCAASDDYGLQIKEVAYKYWGQGTQVTVAS
notes: on phage in the phage ELISA

Biological target: T1, PirB (Vibrio parahaemolyticus)
T1 construct: also called JHE-like toxin PirB-like
T1 chain: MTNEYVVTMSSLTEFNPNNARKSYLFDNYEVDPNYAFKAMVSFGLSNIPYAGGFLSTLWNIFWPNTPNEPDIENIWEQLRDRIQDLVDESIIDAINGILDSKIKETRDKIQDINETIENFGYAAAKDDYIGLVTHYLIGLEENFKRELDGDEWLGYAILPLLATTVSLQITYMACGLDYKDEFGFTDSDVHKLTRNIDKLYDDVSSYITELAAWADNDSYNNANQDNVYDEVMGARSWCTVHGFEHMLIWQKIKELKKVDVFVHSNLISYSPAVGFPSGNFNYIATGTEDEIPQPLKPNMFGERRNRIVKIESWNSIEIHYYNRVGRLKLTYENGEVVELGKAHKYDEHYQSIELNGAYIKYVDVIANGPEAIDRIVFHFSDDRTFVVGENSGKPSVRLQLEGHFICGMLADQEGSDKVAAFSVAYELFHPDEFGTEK
Assay: phage ELISA, antigen-coated wells

Row | Binder | binding above PBS-coated wells [%]
1 | B1 | ≥ 50
2 | B2 | ≥ 50
3 | B3 | ≥ 50
4 | B4 | ≥ 50
5 | B5 | ≥ 50
6 | B6 | ≥ 50
7 | B7 | ≥ 50
8 | B8 | ≥ 50
9 | B9 | ≥ 50
10 | B10 | ≥ 50
11 | B11 | ≥ 50
12 | B12 | ≥ 50
13 | B13 | ≥ 50
14 | B14 | ≥ 50
15 | B15 | ≥ 50
16 | B16 | ≥ 50
17 | B17 | ≥ 50
18 | B18 | ≥ 50

Row | Binder | binding above PBS-coated wells [%]
19 | B19 | ≥ 50
20 | B20 | ≥ 50
21 | B21 | ≥ 50
22 | B22 | ≥ 50
23 | B23 | ≥ 50
24 | B24 | ≥ 50
25 | B25 | ≥ 50
26 | B26 | ≥ 50
27 | B27 | ≥ 50
28 | B28 | ≥ 50
29 | B29 | ≥ 50
30 | B30 | ≥ 50
31 | B31 | ≥ 50
32 | B32 | ≥ 50
33 | B33 | ≥ 50
34 | B34 | ≥ 50
35 | B35 | ≥ 50
36 | B36 | ≥ 50
